# Laboratory results: patent publication US20080118978A1 (published 2008)
# Experiments:
# [1] = target: T1, CD10 (human, UniProt P08473 2-750); assay: flow cytometry on Raji and RTX/Raji cells, FITC anti-mouse IgG secondary
# T1 construct: Endogenous CD10 of human cell lines: on Raji, RTX/Raji and Ramos cells in flow cytometry; In the ELISA it was a Triton X-100-dissolved membrane fraction of SBC-3 cells coated on the plate; also called CALLA; neutral endopeptidase
# Description: The supernatant liquid was removed, cell pellets were loosened and 10 μL of FcR blocking reagent (manufactured by Miltenyi Biotec) was added thereto. After the mixture was allowed to stand on ice for about 30 minutes, an FACS buffer was added thereto and washed by centrifugal separation (about 5000×g for 1 minutes at 4° C.) was repeated three times. An FACS buffer was added so as to give a cell density of 2×10⁷ cells/ml for suspension and each 50 μL thereof was aliquated into a tube. The FACS buffer (50 μL) was added to each tube to suspend and the primary antibody solution was added thereto in an amount of 2.5 μL per tube. With regard to the primary antibody solution, each of mouse anti-CD10 antibody NL-1 [Proc. Natl. Acad. Sci. USA, 79, 4386 (1982)], anti-CD20 antibody B1 (manufactured by Beckman Coulter), FITC-labeled anti-CD19 antibody J4.119 (manufactured by Beckman Coulter) and FITC-labeled anti-CD22 antibody SJ.10.1H11 (manufactured by Beckman Coulter) was used. […] It was filtered by a Nylon mesh and transferred to a test tube to prepare a sample to be measured. Expression of CD antigen on the cell surface was measured using a flow cytometer Epics Elite (manufactured by Beckman Coulter).
# [2] = target: T1, CD10; assay: ELISA on plate-coated membrane fraction of CD10-expressing SBC-3 cells
# Description: As to an antigen, a membrane fraction prepared from human lung small-cell tumor cell line SBC-3 cells (JCRB 0818) which highly express CD10 was used. The membrane fraction was suspended in 20 mM HEPES (pH 7.4) buffer containing 1 mM EDTA and 250 mM sucrose and cells were crushed using a homogenizer, then centrifugal separation was carried out at a low speed of 8,000×g so that granules in the cells and uncrushed cells were precipitated and removed and a centrifugal separation was carried out at a high speed of 80,000×g to separate the desired cell membrane. The separated membrane fraction was dissolved in PBS containing 0.1% of Triton-X 100 whereby protein was quantified, then made 10 μg/mL, dispensed at 50 μL/well into a 96-well plate for ELISA (manufactured by Gliner) and allowed to stand at 4° C. for one night for adsorption. After washing with PBS, 1% BSA-PBS was added in an amount of 100 μL/well and the reaction was carried out at room temperature for 1 hour to block the remaining active groups were blocked. […] After the reaction, each well was washed with Tween-PBS, a peroxidase-labeled goat anti-human IgG (H&L) antibody solution diluted 2,000-fold with 1% BSA-PBS was added as a secondary antibody solution in an amount of 50 μL/well and reaction was carried out at room temperature for 1 hour. After the reaction, washing was carried out with Tween-PBS, an ABTS substrate solution was added in an amount of 50 μL/well to develop color and OD415 was measured.
# T1 sequence (P08473 2-750 limits assumed): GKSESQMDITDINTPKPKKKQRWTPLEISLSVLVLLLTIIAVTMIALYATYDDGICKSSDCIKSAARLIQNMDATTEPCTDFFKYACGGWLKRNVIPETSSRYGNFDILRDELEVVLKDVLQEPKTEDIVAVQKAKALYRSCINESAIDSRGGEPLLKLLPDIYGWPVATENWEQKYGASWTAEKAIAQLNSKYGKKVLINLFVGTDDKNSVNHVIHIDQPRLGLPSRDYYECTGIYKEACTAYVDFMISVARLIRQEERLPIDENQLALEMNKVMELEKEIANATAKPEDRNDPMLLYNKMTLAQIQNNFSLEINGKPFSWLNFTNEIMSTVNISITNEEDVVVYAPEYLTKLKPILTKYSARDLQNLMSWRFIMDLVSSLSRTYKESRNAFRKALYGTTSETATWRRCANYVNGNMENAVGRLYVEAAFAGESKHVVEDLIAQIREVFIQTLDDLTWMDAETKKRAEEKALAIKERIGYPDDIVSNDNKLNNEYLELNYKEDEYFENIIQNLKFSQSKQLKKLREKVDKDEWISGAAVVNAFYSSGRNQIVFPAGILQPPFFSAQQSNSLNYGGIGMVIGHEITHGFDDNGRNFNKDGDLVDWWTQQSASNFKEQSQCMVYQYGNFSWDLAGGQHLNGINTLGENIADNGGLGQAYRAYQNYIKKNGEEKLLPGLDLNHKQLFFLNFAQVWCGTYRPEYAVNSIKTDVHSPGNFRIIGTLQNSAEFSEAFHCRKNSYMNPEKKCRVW
Binder,binding result [1],binding result [2]
"mouse anti-CD10 antibody NL-1 (antibody, V domains shown, Mouse hybridoma antibody; H chain cloned with a mouse Cgamma2a probe and L chain with a Ckappa probe; also called anti-CD10 mouse antibody NL-1) VH: DVQLVESGGGLVQPGGSRKLSCAASGFTFSSFGMHWVRQAPEKGLEWVAYISGGSYTIYYADTVKGRFTISRDNPKNTLFLQMTSLRSEDTAMYYCASSYGNFWYFDVWGAGTTVTVSS VL: EIVLTQSPALMAASPGEKVTIACSVSSSISSSNLHWYQQKSETSPKPWIYGTSNLASGVPVRFSGSGSGTSYFLTISSMEAEDAATYYCQQWSSYPLTFGGGTKLEIK",binds,
"anti-CD10 humanized antibody HV0LV9 MS705 (antibody, V domains shown, also called HV0LV9 MS705 antibody; FERM BP-10099) VH: EVQLVESGGGVVQPGRSLRLSCAASGFTFSSFGMHWVRQAPGKGLEWVAYISGGSYTIYYADTVKGRFTISRDNSKNTLYLQMNSLRAEDTAVYYCARSYGNFWYFDVWGQGTTVTVSS VL: DIVMTQSPDSLAVSLGERATIACSVSSSISSSNLHWYQQKPGQSPKPWIYGTSNLASGVPVRFSGSGSGTSYFLTISSLQAEDVATYYCQQWSSYPLTFGQGTKVEIKR",,binds
"anti-CD10 humanized antibody HV2LV9 MS705 (antibody, V domains shown, also called HV2LV9 MS705 antibody) VH: EVQLVESGGGVVQPGRSLRLSCAASGFTFSSFGMHWVRQAPEKGLEWVAYISGGSYTIYYADTVKGRFTISRDNSKNTLYLQMNSLRAEDTAVYYCASSYGNFWYFDVWGQGTTVTVSS VL: DIVMTQSPDSLAVSLGERATIACSVSSSISSSNLHWYQQKPGQSPKPWIYGTSNLASGVPVRFSGSGSGTSYFLTISSLQAEDVATYYCQQWSSYPLTFGQGTKVEIKR",,binds
"anti-CD10 humanized antibody HV0LV0 MS705 (antibody, V domains shown, also called HV0LV0 MS705 antibody) VH: EVQLVESGGGVVQPGRSLRLSCAASGFTFSSFGMHWVRQAPGKGLEWVAYISGGSYTIYYADTVKGRFTISRDNSKNTLYLQMNSLRAEDTAVYYCARSYGNFWYFDVWGQGTTVTVSS VL: DIVMTQSPDSLAVSLGERATINCSVSSSISSSNLHWYQQKPGQPPKLLIYGTSNLASGVPDRFSGSGSGTDFTLTISSLQAEDVAVYYCQQWSSYPLTFGQGTKVEIKR",,binds
